Data on 8 molecules can be found in US20200247889A1 (published 2020).

Changes are numbered by the printed parent chain.

In assay [1] the target is T1, mouse TREM1 (mouse, UniProt Q9JKE2 21-230).
T1 construct: whole, on cells; also called mTREM1
T1 sequence (looked up): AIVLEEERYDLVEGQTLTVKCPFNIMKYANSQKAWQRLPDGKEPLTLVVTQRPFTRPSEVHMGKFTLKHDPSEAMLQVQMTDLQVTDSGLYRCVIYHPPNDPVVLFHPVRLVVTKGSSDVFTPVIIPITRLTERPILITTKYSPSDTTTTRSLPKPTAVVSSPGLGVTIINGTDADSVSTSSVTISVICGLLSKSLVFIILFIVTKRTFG
As to the kind of experiment: flow cytometry cross-blocking on HEK293 cells over-expressing mouse TREM-1. The protocol:
100,000 HEK293 cells over-expressing mouse TREM-1 were plated in 96 well plates and dead cells were stained with Zombie Near Infrared (Biolegend, San Diego, Calif.). These cells were subsequently incubated with the indicated unconjugated anti-mouse TREM-1 antibodies at saturating concentrations for 15 mins on ice. Following incubation with these antibodies, cells were then stained with the indicated Alexa Fluor 647 conjugated antibodies for 30 mins on ice. The ability of conjugated antibodies to bind in the presence of unconjugated antibodies was assessed by Alexa 647 signal measured by flow cytometry (BD Fortessa X-14, BD Biosciences, San Jose, Calif.).
The sequences denote the linear amino acid stretches that comprise each domain and the numbering is according to UniProt sequence analysis and 3D modelling of mouse TREM1.
A general note: A flow cytometer gives signals particle by particle.

Assay [2] addresses T1, mouse TREM1. As to the kind of experiment: flow cytometry on HEK293 cells over-expressing mouse TREM-1. The method, then:
100,000 HEK 293 parental or over-expressing mouse TREM-1 were plated in 96 well plates and dead cells were stained with Zombie Near Infrared (Biolegend, San Diego, Calif.). […] These primary unconjugated antibodies were detected with Alexa Fluor 647 conjugated anti-mouse Fcγ secondary antibodies (Jackson Immunoresearch, West Grove, Pa.). Alexa Fluor 647 signal was measured by flow cytometry (BD Fortessa X-14, BD Biosciences, San Jose, Calif.). EC50 values were calculated by curve fitting signal generated from antibodies binding to over-expressing cells over background fluorescence generated from HEK293 parental cells in Graphpad Prism (Graphpad Software, La Jolla, Calif.).

The target of assay [3] is T1, mouse TREM1. The assay is described as follows: in vivo receptor occupancy, flow cytometry of tumor cells.
Description: CT26 (colon adenocarcinoma), LL/2 (lung adenocarcinoma), MC38 (colon adenocarcinoma), and RENCA (renal cell carcinoma) were harvested using StemPro Accutase Dissociation reagent (Gibco Corporation), washed in PBS and subcutaneously injected to female C57BL/6 (Jackson Laboratories) or BALB/c (Taconic Biosciences) mice at a dose between 8×10⁵-1×10⁶ cells in the right ventral flank. […] Antibody treatments were 15 mg/kg for both arms and mice were treated twice at the indicated time points. 48 hr after the second dose, mice were euthanized and the tumor and blood were harvested for immune population analysis and expression of TREM1. Immune population and expression analyses were performed by flow cytometry (BD Fortessa X-14, BD Biosciences).
The target of the next assay is T2, cynomolgus TREM1 (cynomolgus, UniProt A0A2K5VHG8 21-233).
T2 construct: whole, on cells; also called cTREM1
T2 sequence: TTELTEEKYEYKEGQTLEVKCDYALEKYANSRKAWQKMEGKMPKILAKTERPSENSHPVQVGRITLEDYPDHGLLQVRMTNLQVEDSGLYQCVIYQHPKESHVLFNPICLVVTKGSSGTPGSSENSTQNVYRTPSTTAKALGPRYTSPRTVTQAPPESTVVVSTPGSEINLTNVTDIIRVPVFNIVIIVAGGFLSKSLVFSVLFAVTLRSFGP
The assay is described as follows: flow cytometry on HEK293 cells over-expressing cynomolgus TREM-1.

Description for cynomolgus TREM1: Titrations of indicated unconjugated antibodies were incubated with these cells within a range of 0 ug/ml to 30 ug/ml in a 1:4 or 1:5 dilution range across 8 points. […] EC50 values were calculated by curve fitting signal generated from antibodies binding to over-expressing cells over background fluorescence generated from HEK293 parental cells in Graphpad Prism (Graphpad Software).

B1: Pi-4928 (antibody, mouse IgG2a, kappa, V domains shown)
VH: QVQLKESGPGLVQPSQTLSLTCTVSGFSITSSNVYWFRQPPGKGLEWMGNIWGDGSTDYNSSLKSRLTLSRDTSKNQVFLKINSLQSEDTATYFCTRSWEYYFDHWGQGVVVTVSS
VL: DIVLTQSPALAVSPGQRATLSCRASQSVTLSNVNLMNWYQQKPGQQPKLLIYHASNLASGIPTRFSGSGSGTDFTLTIDPVQADDIAAYYCQQSGESPRTFGGGTKVELKR
notes: Anti-mouse TREM1 mAb
On to B1, for which, in the assay with mouse TREM1 [1], the binding result is on record as “binds”.

B2: afucosylated Pi-4928 (antibody, mouse IgG2a, kappa, V domains shown)
VH: B1 VH
VL: B1 VL
modifications: afucosylated Fc glycan
With B2, the binding result with mouse TREM1 [2] is reported as “binds”.

B3: Pi-9772 (antibody, mouse IgG2a, kappa, V domains shown)
VH: EVQLVESGGGLVQPGGSLRLSCAASGFDLSYSSMHWVRQAPGKGLEWVAYISPYSGYTSYADSVKGRFTISADTSKNTAYLQMNSLRAEDTAVYYCARHGSWSYGFSSGFDYWGQGTLVTVSS
VL: DIQMTQSPSSLSASVGDRVTITCRASQSVSSAVAWYQQKPGKAPKLLIYSASSLYSGVPSRFSGSRSGTDFTLTISSLQPEDFATYYCQQYAYYYPITFGQGTKVEIKR
notes: Anti-mouse TREM1 mAb
For the molecule B3, the binding result with mouse TREM1 [1] was “binds”.

B4: afucosylated Pi-9772 (antibody, mouse IgG2a, kappa, V domains shown)
VH: B3 VH
VL: B3 VL
modifications: afucosylated Fc glycan
B4: the binding result with mouse TREM1 [2] is listed as “binds”.

B5: Pi-9067L (antibody, mouse IgG2a, kappa, V domains shown)
VH: EVQLVESGGGLVQPGGSLRLSCAASGFDIYSYSIHWVRQAPGKGLEWVAYIYPSYGYTSYADSVKGRFTISADTSKNTAYLQMNSLRAEDTAVYYCARGAVAALDYWGQGTLVTVSS
VL: DIQMTQSPSSLSASVGDRVTITCRASQSVSSAVAWYQQKPGKAPKLLIYSASSLYSGVPSRFSGSRSGTDFTLTISSLQPEDFATYYCQQYGVSGYSLITFGQGTKVEIKR
notes: Anti-mouse TREM1; also called WT Pi-9067L; fucosylated PI-9067L
With B5, the binding result in the assay with mouse TREM1 [1] is recorded as “binds”.

B6: afucosylated Pi-9067L (antibody, mouse IgG2a, kappa, V domains shown)
VH: B5 VH
VL: B5 VL
modifications: afucosylated Fc glycan
notes: Same polypeptides as Pi-9067L, afucosylated; also called Afuc-Pi-9067L; Afuc-PI-9067L
Take B6: the binding result in the assay with mouse TREM1 [2] is listed as “binds”.

B7: Pi-9069L (antibody, mouse IgG2a, kappa, V domains shown)
VH: EVQLVESGGGLVQPGGSLRLSCAASGFDLYSSYIHWVRQAPGKGLEWVASIYPSYGYTYYADSVKGRFTISADTSKNTAYLQMNSLRAEDTAVYYCARSHSYVHGAMDYWGQGTLVTVSS
VL: B5 VL with G92W, V93W, S94V, G95P, Y96A, S97A, L98P
With B7, the binding result with mouse TREM1 [3] is listed as “binds”.

B8: Pi-8421 (antibody, V domains shown)
VH: EVQLVESGGGLVQPGGSLRLSCAASGFDISYSSIHWVRQAPGKGLEWVASIYSSYGSTYYADSVKGRFTISADTSKNTAYLQMNSLRAEDTAVYYCARYYYSHAGWYVSGYWPAIDYWGQGTLVTVSS
VL: DIQMTQSPSSLSASVGDRVTITCRASQSVSSAVAWYQQKPGKAPKLLIYSASSLYSGVPSRFSGSRSGTDFTLTISSLQPEDFATYYCQQSSYSLITFGQGTKVEIK
For B8, in the assay with cynomolgus TREM1, the binding result was “no binding (tested: titrated within 0 ug/ml to 30 ug/ml)”.
